Experimental data from patent publication US9937235B2, “Lipidated peptides as anti-obesity agents” (USTAV ORGANICKE CHEMIE A BIOCHEMIE AKADEMIE VED CR, V.V.I, priority 2012, dated 2018).
Where no end group is shown, it is not given here. [ ]: non-standard residue; d: D form. The star is where a group is joined. 1Nal = N[C@@H](Cc1cccc2ccccc12)C(=O)O; Palmitoyl = CCCCCCCCCCCCCCCC(=O)*; Myristoyl = CCCCCCCCCCCCCC(=O)*; Nle = CCCC[C@H](N)C(=O)O

T1: human PrRP receptor, GPR10, transfected in CHO cells (human, UniProt P49683 1-370)
T1 construct: whole, on cells; also called human GPR10 receptor; the human receptor GPR10 in CHO cells
T1 sequence (looked up): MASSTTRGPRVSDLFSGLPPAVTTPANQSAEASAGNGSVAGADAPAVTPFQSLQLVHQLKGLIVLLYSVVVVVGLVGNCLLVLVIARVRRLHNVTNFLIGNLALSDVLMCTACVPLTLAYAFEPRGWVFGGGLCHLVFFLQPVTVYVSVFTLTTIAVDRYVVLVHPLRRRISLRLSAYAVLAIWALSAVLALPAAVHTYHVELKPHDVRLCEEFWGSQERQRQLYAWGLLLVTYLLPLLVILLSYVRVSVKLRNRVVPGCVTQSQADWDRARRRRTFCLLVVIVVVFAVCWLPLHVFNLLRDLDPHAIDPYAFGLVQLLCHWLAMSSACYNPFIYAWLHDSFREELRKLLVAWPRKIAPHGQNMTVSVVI

T2: rat PrRP receptor in RC-4B/C cells (rat, UniProt Q64121 1-370)
T2 construct: whole, on cells; also called the rat receptor; GPR10
T2 sequence (looked up): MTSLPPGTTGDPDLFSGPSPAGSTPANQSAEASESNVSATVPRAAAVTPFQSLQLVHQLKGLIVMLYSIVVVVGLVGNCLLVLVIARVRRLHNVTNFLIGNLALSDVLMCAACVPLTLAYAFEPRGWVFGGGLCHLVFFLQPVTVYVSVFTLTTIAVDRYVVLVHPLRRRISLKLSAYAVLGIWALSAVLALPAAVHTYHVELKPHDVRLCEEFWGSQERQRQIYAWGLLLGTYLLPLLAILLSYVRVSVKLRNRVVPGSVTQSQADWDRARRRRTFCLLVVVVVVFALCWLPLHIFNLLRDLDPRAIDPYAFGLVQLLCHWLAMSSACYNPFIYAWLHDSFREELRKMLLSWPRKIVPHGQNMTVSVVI


How the values were obtained:
[1] = molecular target: T1, human PrRP receptor, GPR10, transfected …; test: competition with 125I-human PrRP31 on CHO cells with transfected human GPR10
Protocol: CHO cells with transfected human PrRP receptor, GPR10 (Perkin Elmer, USA) were grown on 24-well plates coated with polyethyleneimine. The cells were grown to the optimal density of 40-80 thousand cells per well.
(§1) Plates were incubated for 60 minutes at room temperature. After incubation, the cells were solubilized in 0.1 mol/l solution of NaOH and the radioactivity bound to the cells was counted using a γ-counter. The experiments were performed in duplicate and repeated at least three times.

[2] = molecular target: T2, rat PrRP receptor in RC-4B/C cells; test: competition with 125I-rat PrRP31 on RC-4B/C cells
Protocol: The rat pituitary cell line RC-4B/C (ATCC, Manassas, USA) was grown on 24-well plates which had their bottom coated with polyethyleneimine. The cells were grown to the optimal density of 300-450 thousand per well.
as §1
For evaluation of competitive binding experiments, the program Graph Pad Prism Software (San Diego, Calif., USA) was used. A method of nonlinear regression assuming one-site binding was used.

Row | Ki [1] [nM] | Ki [2] [nM] | Binder
1 | 583 | 655 | TPDINPAWYTGRGARPFGRF-NH2 [analog no. 42]
2 | 8.47 | 7.21 | Myristoyl-TPDINPAWYTGRGARPFGRF-NH2 (SMILES CCCCCCCCCCCCCC(=O)N[C@H](C(=O)N1CCC[C@H]1C(=O)N[C@@H](CC(=O)O)C(=O)N[C@H](C(=O)N[C@@H](CC(N)=O)C(=O)N1CCC[C@H]1C(=O)N[C@@H](C)C(=O)N[C@@H](Cc1c[nH]c2ccccc12)C(=O)N[C@@H](Cc1ccc(O)cc1)C(=O)N[C@H](C(=O)NCC(=O)N[C@@H](CCCNC(=N)N)C(=O)NCC(=O)N[C@@H](C)C(=O)N[C@@H](CCCNC(=N)N)C(=O)N1CCC[C@H]1C(=O)N[C@@H](Cc1ccccc1)C(=O)NCC(=O)N[C@@H](CCCNC(=N)N)C(=O)N[C@@H](Cc1ccccc1)C(N)=O)[C@@H](C)O)[C@@H](C)CC)[C@@H](C)O) [analog no. 43]
3 | 1.92 | 1.28 | SRAHQHS[Nle]ETRTPDINPAWYTGRGIRPVGRF-NH2 [analog no. 14]
4 | 34.5 | 102 | SRAHQHS[Nle]ETRTPDINPAWYTGRGIRPVGR[1Nal]-NH2 [analog no. 21]
5 | 1.33 | 3.96 | Myristoyl-SRAHQHS[Nle]ETRTPDINPAWYTGRGIRPVGR[1Nal]-NH2 [analog no. 22]
6 | 4.27 | 2.17 | Palmitoyl-SRAHQHS[Nle]ETRTPDINPAWYTGRGIRPVGR[1Nal]-NH2 [analog no. 23]
7 | 2.02 | 3.25 | SRAHQHS[Nle]ETRTPDINPAWYTGRGIRPVGRY-NH2 (N-terminus assumed; SMILES CCCC[C@H](NC(=O)[C@H](CO)NC(=O)[C@H](Cc1c[nH]cn1)NC(=O)[C@H](CCC(N)=O)NC(=O)[C@H](Cc1c[nH]cn1)NC(=O)[C@H](C)NC(=O)[C@H](CCCNC(=N)N)NC(=O)[C@@H](N)CO)C(=O)N[C@@H](CCC(=O)O)C(=O)N[C@H](C(=O)N[C@@H](CCCNC(=N)N)C(=O)N[C@H](C(=O)N1CCC[C@H]1C(=O)N[C@@H](CC(=O)O)C(=O)N[C@H](C(=O)N[C@@H](CC(N)=O)C(=O)N1CCC[C@H]1C(=O)N[C@@H](C)C(=O)N[C@@H](Cc1c[nH]c2ccccc12)C(=O)N[C@@H](Cc1ccc(O)cc1)C(=O)N[C@H](C(=O)NCC(=O)N[C@@H](CCCNC(=N)N)C(=O)NCC(=O)N[C@H](C(=O)N[C@@H](CCCNC(=N)N)C(=O)N1CCC[C@H]1C(=O)N[C@H](C(=O)NCC(=O)N[C@@H](CCCNC(=N)N)C(=O)N[C@@H](Cc1ccc(O)cc1)C(N)=O)C(C)C)[C@@H](C)CC)[C@@H](C)O)[C@@H](C)CC)[C@@H](C)O)[C@@H](C)O, Tyr at position 31 in place of Phe) [analog no. 34]
